{
  "source": "patent US20160244740A1",
  "about": "“MUTANT CHON[…] I COMPOSITIONS AND METHODS OF THEIR USE” (OHIO STATE INNOVATION FOUNDATION, priority 2013, published 2016)",
  "molecules": {"B1": {"name": "Chase ABC: bacterial enzyme, chondroitin-sulfate-ABC endolyase; bacterially produced and purified (Seikagaku Inc) (protein, UniProt P59807 25-1021, looked up)", "Chondroitin sulfate ABC …": "ATSNPAFDPKNLMQSEIYHFAQNNPLADFSSDKNSILTLSDKRSIMGNQSLLWKWKGGSSFTLHKKLIVPTDKEASKAWGRSSTPVFSFWLYNEKPIDGYLTIDFGEKLISTSEAQAGFKVKLDFTGWRAVGVSLNNDLENREMTLNATNTSSDGTQDSIGRSLGAKVDSIRFKAPSNVSQGEIYIDRIMFSVDDARYQWSDYQVKTRLSEPEIQFHNVKPQLPVTPENLAAIDLIRQRLINEFVGGEKETNLALEENISKLKSDFDALNIHTLANGGTQGRHLITDKQIIIYQPENLNSQDKQLFDNYVILGNYTTLMFNISRAYVLEKDPTQKAQLKQMYLLMTKHLLDQGFVKGSALVTTHHWGYSSRWWYISTLLMSDALKEANLQTQVYDSLLWYSREFKSSFDMKVSADSSDLDYFNTLSRQHLALLLLEPDDQKRINLVNTFSHYITGALTQVPPGGKDGLRPDGTAWRHEGNYPGYSFPAFKNASQLIYLLRDTPFSVGESGWNNLKKAMVSAWIYSNPEVGLPLAGRHPFNSPSLKSVAQGYYWLAMSAKSSPDKTLASIYLAISDKTQNESTAIFGETITPASLPQGFYAFNGGAFGIHRWQDKMVTLKAYNTNVWSSEIYNKDNRYGRYQSHGVAQIVSNGSQLSQGYQQEGWDWNRMQGATTIHLPLKDLDSPKPHTLMQRGERGFSGTSSLEGQYGMMAFDLIYPANLERFDPNFTAKKSVLAADNHLIFIGSNINSSDKNKNVETTLFQHAITPTLNTLWINGQKIENMPYQTTLQQGDWLIDSNGNGYLITQAEKVNVSRQHQVSAENKNRQPTEGNFSSAWIDHSTRPKDASYEYMVFLDATPEKMGEMAQKFRENNGLYQVLRKDKDVHIILDKLSNVTGYAFYQPASIEDKWIKKVNKPAIVMTHRQKDTLIVSAVTPDLNMTRQKAATPVTINVTINGKWQSADKNSEVKYQVSGDNTELTFTSYFGIPQEIKLSPLP"}},
  "key": {"[1]": {"details": "in vivo; cited from earlier work"}, "subcutaneous tumors": {"tested_on": "subcutaneous tumors", "details": "with adenovirus; cited from earlier work"}, "glioma cells": {"tested_on": "glioma cells", "test": "Effect of Chase ABC treatment of glioma cells in vitro on oHSV infection/replication", "assay_type": "cell-based", "description": "The tumor's extracellular matrix (ECM) can pose a significant barrier for efficient viral spread, thus limiting virotherapy efficacy. Chondroitin sulfate proteoglycans (CSPG) are one of the major components of glioma ECM. Choindroitinase ABC 1 (Chase ABC) is a bacterial enzyme that can depolymerize this ECM scaffold. Chase ABC mediated digestion of glioma CSPG can enhance oHSV dissemination and efficacy. […] This study examines the mechanism and impact of Chase ABC on oncolysis. Reduced virus replication can contribute to limited oncolytic efficacy of oHSV. Several innovative approaches are currently under investigation including transcriptional retargeting of viruses to drive virulence under the control of tumor-specific promoters. rQNestin34.5 is an oHSV that expresses viral ICP34.5 regulated by glioma-specific nestin promoter in an ICP34.5 deleted viral backbone. […] An oHSV expressing the humanized sequence of Chase ABC within the context of rQNestin34.5 can be used. […] The anti-tumor efficacy of the Chase ABC-expressing oHSV in vitro and in vivo, in glioma can be tested. The impact of the Chase ABC-expressing oHSV on tumor immune cell infiltration and responses can also be tested."}, "[2]": {"details": "cited from earlier work; for toxicity/hemorrhages/glial reactivity: repeated injections into brains and spinal cords"}, "[3]": {"tested_on": "U87ΔEGFR human glioma spheroids", "test": "oHSV spread in organotypic glioma model in presence/absence of Chase ABC", "assay_type": "cell-based", "details": "10^4 pfus of rQNestin34.5, presence vs absence of purified Chase ABC, n=3/group", "method": "Briefly U87delta EGFR glioma cell line spheroids on Organotypic brain slice cultures were treated with or without purified Chase and then infected with OV. […] Gli36ΔEGFR mice were inoculated with 1×10^6 viral particles on six days (shown by arrows), and percent survival (FIG. 15A) and tumor volume were followed over the course of the study. U87ΔEGFR mice were also inoculated with 1×10^6 viral particles on six days (shown by arrows), and percent survival (FIG. 15B) and tumor volume were followed over the course of the study. U87ΔEGFR mice were also inoculated with 3×10^5 viral particles once ten days after cell implantation (shown by arrow), and percent survival (FIG. 15C) was followed over the course of the study.\nAs a preliminary result, the effect of Chase ABC treatment on spread by the rQNestin34.5 oHSV was tested in an organotypic glioma model. Briefly, U87ΔEGFR human glioma spheroids (made by the hanging drop method), grown on 300-μm organotypic brain slices from 5-7-day-old mice, were infected with 10^4 pfus of rQNestin34.5, in the presence/absence of Chase ABC. Spread of oHSV in the spheres was visualized by fluorescent imaging of oHSV encoded GFP in infected cells (n=3/group)."}},
  "note": "Read-outs that look alike come from different tables or passages of the source.",
  "data": [
    {"molecule": "collagenase", "values": [
      {"measurement": "intratumoral hemorrhages", "setting": "[1]", "result": "intratumoral hemorrhages occurred in many tumors"}
    ]},
    {"molecule": "hyaluronidase", "values": [
      {"measurement": "viral spread and therapeutic efficacy", "setting": "subcutaneous tumors", "result": "increased viral spread and therapeutic efficacy"}
    ]},
    {"molecule": "B1", "values": [
      {"measurement": "oHSV infection/replication", "setting": "glioma cells", "result": "does not negatively affect oHSV infection/replication"},
      {"measurement": "loss of neurons, alterations of their structure, reactions of glial cells", "setting": "[2]; intracerebral injections, immediately or after five months of treatment", "result": "did not reveal loss of neurons or alterations of their structure nor reactions of glial cells"},
      {"measurement": "toxicity/hemorrhages/glial reactivity", "setting": "[2]", "result": "have not been associated with deleterious effects"},
      {"measurement": "toxicity/hemorrhages/glial reactivity", "setting": "[2]; listed as purified Chase ABC", "result": "absence of toxicity/hemorrhages/glial reactivity"},
      {"measurement": "oHSV spread in spheres (GFP imaging)", "setting": "[3]", "result": "increase in viral spread"},
      {"measurement": "oHSV spread in spheres (GFP imaging)", "setting": "[3]; listed as purified Chase ABC", "result": "increased oHSV spread within all three glioma spheroids"}
    ]}
  ]
}
